# Data taken from patent publication US6635421 (CHILDREN S MEDICAL CENTER, dated 2003).
# T1: Human NP-2 (neuropilin-2) (human, UniProt O60462 21-931)
# T1 sequence: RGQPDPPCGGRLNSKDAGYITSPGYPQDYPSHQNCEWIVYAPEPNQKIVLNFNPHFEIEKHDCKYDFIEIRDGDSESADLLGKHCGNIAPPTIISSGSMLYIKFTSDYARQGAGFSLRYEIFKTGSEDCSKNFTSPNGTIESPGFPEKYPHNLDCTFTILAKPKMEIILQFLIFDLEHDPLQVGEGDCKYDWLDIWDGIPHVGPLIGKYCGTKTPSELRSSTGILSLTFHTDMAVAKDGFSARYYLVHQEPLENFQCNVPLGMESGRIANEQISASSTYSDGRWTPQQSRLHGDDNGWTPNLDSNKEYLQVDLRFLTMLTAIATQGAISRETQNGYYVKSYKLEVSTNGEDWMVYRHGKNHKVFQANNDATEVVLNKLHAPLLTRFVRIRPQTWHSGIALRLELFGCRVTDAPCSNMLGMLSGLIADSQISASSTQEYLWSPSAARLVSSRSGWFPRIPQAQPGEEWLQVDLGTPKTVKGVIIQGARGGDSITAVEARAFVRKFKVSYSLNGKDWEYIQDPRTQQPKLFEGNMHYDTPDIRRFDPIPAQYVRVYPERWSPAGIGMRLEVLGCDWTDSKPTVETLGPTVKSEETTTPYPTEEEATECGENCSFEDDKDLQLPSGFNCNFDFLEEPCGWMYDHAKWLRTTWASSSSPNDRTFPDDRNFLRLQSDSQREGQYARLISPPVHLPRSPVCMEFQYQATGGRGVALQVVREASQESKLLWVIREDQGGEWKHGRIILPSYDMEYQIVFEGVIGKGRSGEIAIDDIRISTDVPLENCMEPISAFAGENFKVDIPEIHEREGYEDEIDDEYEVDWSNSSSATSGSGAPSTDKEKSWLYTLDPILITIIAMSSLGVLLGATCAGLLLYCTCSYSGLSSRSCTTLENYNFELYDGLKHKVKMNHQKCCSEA
# Experiments:
# [1] = target: T2, Human VEGF165R/NP-1 (VEGF165 receptor / neuropilin-1) (human, UniProt O14786 22-923); experiment: Scatchard analysis (LIGAND program) of 125I-VEGF165 binding to PAE/NP-1 cells
# T2 construct: 923 amino acid open reading frame; also called clone A2
# [2] = target: T2, Human VEGF165R/NP-1 (VEGF165 receptor / …); experiment: cell-based or functional assay
# [3] = target: T2, Human VEGF165R/NP-1 (VEGF165 receptor / …); experiment: Scatchard analysis of 125I-VEGF165 binding to independently generated PAE/NP-1 clones
# [4] = target: T1, Human NP-2 (neuropilin-2); experiment: expression cloning: COS-7 cells transfected with single clones screened for 125I-VEGF165 binding (seven positive clones, one of them NP-2)
# Description: The E. coli were sub-divided into 50 separate pools and plated onto 50 LB ampicillin dishes, with each pool representing approximately 100 clones. […] The seven positive plasmid clones were amplified and their DNA was analyzed by restriction enzyme digestion. […] One clone from each group was submitted for automated DNA sequencing.
# [5] = target: T2, Human VEGF165R/NP-1 (VEGF165 receptor / …); experiment: cross-linking of 125I-VEGF121 to PAE/NP-1 cells, SDS-PAGE, autoradiography
# Description: The binding was carried out in the presence of 1 μg/ml heparin. […] The cells were lysed and proteins were resolved by 6% SDS-PAGE. The polyacrylamide gel was dried and exposed to X-ray film.
Kd [1],231 breast carcinoma cell motility (Boyden chamber motility assay) [2],Kd [3],binding result [4],binding result [5],Binder
0.32 nM,2 fold,0.3 nM,binds,,"Human recombinant VEGF165 (ligand, UniProt P15692-4 27-191, looked up, radio-iodinated (125I, IODO-BEADS) in the binding and cross-linking experiments; unlabelled when coupled to Sepharose or used as competitor, mature) APMAEGGGQNHHEVVKFMDVYQRSYCHPIETLVDIFQEYPDEIEYIFKPSCVPLMRCGGCCNDEGLECVPTEESNITMQIMRIKPHQGQHIGEMSFLQHNKCECRPKKDRARQENPCGPCSERRKHLFVQDPQTCKCSCKNTDSRCKARQLELNERTCRCDKPRR"
,,,,no binding (tested: 10 ng/ml),"Human recombinant VEGF121 (ligand, UniProt P15692-9 27-147, looked up, radio-iodinated (125I, IODO-BEADS), mature) APMAEGGGQNHHEVVKFMDVYQRSYCHPIETLVDIFQEYPDEIEYIFKPSCVPLMRCGGCCNDEGLECVPTEESNITMQIMRIKPHQGQHIGEMSFLQHNKCECRPKKDRARQEKCDKPRR"
